Source: US20050032744A1

What was measured:
[1] = biological target: adenylyl cyclase (AC) in rat dorsal root ganglia (DRG) lysates (rat); assay: cell-based or functional assay
[2] = biological target: adenylyl cyclase (AC) in rat spinal cord lysates / membrane preparations (rat); assay: cell-based or functional assay

- inhibition of Gαs-stimulated AC activity, DRG lysates, 30 nM PAM [1]: 32%
- inhibition of Gαs-stimulated AC activity, spinal cord lysates of animals treated for 1 hour with formalin, 30 nM PAM [2]: 25%
- inhibition of Gαs-stimulated AC activity, spinal cord lysates of control animals, 30 nM PAM [2]: 49%
- inhibition of Gαs-stimulated AC activity, spinal cord lysates of rats 96 hours after zymosan injection, 30 nM PAM [2]: 70%
Substance: Protein Associated with Myc (PAM), human, full length, purified from HeLa cells (from UniProt O75592 1-4678)
